± gives the uncertainty stated by the source.
Assay: amyloid nucleation score (Sup35N fusion, yeast selection) (log enrichment); library NNK1; higher = more nucleation; inactive = no reads after selection
Summary of the method: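 Three technical output replicates were used for random libraries. Psi-negative yeast expressing peptides of 20 random codons fused to Sup35N were induced with 100 μM copper sulfate for 24 hours and grown 7 days at 30°C on medium lacking adenine and uracil, and input and output plasmid inserts were Illumina-sequenced, excluding sequences with under 100 input reads. The nucleation score is the DiMSum log enrichment of output over input reads, centred on the mode score of non-aggregating sequences.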

Row | Substance | amyloid nucleation score
1 | SSEDAVRLLLIVIFFLTFKF | 0.778 ± 0.49
2 | VHRRRIRQSAWVRGAVSTFR | -0.011 ± 0.4
3 | ITVYLMALVNNVCG | 3.38 ± 0.13
4 | VVLNIR | -0.232 ± 0.52
5 | TALSFRYVYLI | -0.612 ± 0.61
6 | QYFKPGVASPSGDPVFKKKV | -0.404 ± 0.43
7 | RVRTPHNWTWGITCTWVFKF | 0.326 ± 0.51
8 | MQLTFAVKLGENRE | 2.77 ± 0.079
9 | RCNSDESYL | 0.078 ± 0.42
10 | YGVEMLPHISNAVTLFFGN | 8.133 ± 0.057
11 | PVLRAWYGRLFCRYSWLWQC | 0.274 ± 0.46
12 | CNRPGF | -0.249 ± 0.44
13 | FRVNCVAWDASGTYTYGR | 0.525 ± 0.4
14 | YAAVLLNFT | 1.09 ± 0.28
15 | RVTSNEKRNYRVSRICPHLT | -0.271 ± 1
16 | IWTFRYVFRIFTCSDGTMVH | -0.108 ± 0.42
17 | DIFSA | 1.49 ± 0.43
18 | NDSNSPIFPGGDHPWCGFDW | 0.089 ± 0.88
19 | RTFHYAVNINRWLNKECGLH | -0.702 ± 1.7
20 | ASFGGINLPL | -0.236 ± 0.41
21 | GLLTMIPKDYNCRISYLVHT | 0.015 ± 0.64
22 | PIVMCFFGKV | -0.201 ± 0.41
23 | KYVIGVNAMEWWPTTTAI | 0.166 ± 1.6
24 | YWCRSSLFRFMGLRYESRMY | 0.359 ± 0.51
25 | YPSVLRINTTFASDLTG | 0.894 ± 0.3

Row | Substance | amyloid nucleation score
26 | LTPNVFAL | -0.345 ± 0.3
27 | DKLDSLIRVLNRLDNL | -0.316 ± 0.4
28 | FGNRFEYRFERTN | -0.482 ± 1.1
29 | NQACAFYNRLRFGK | 3.27 ± 0.14
30 | NGCVLLMVMVLTVDIAL | 2.78 ± 0.18
31 | KVPDALFVDRLLYQVISCIH | 3.47 ± 0.084
32 | SDYTLEGLIVFPCCVLLHVR | 0.381 ± 0.39
33 | YVYLYGGSSQFVWYGLFSFA | 2.65 ± 0.14
34 | VPDESDHFSFRVEMLSLKVD | -0.639 ± 0.45
35 | TGDIISRSLSASIEQNFSSN | 0.443 ± 0.2
36 | RVISPSCKWDQCSPMCS | -0.499 ± 1.1
37 | ESFILVFGGCCNWFGCVYLM | 6.537 ± 0.06
38 | IVFFQEDGSWAEWFVGEVLT | 0.557 ± 0.42
39 | NRCCVPTKATN | 0.27 ± 0.53
40 | LNHCVNMLRGRCGVPLLSVV | 0.551 ± 1.1
41 | SDFQRE | 3.91 ± 0.099
42 | MLGSGAANTCHLTTRAWDHR | 0.183 ± 0.39
43 | LWLIPRWYDLTEMECFDMYN | 0.477 ± 0.45
44 | DPAYEQGGLFEVGTIHCNIK | 0.527 ± 0.46
45 | GQGALDYF | inactive
46 | FLQSIEGRSETGRMSRAISV | 1.08 ± 0.93
47 | CAVVVGVSGGAHEGVGKTKY | -0.35 ± 0.45
48 | FTWERSH | 0.655 ± 0.68
49 | LCSDIG | -0.09 ± 0.4
50 | STWFSFTFLWLMSRGVNQNF | 1.56 ± 0.36

Row | Substance | amyloid nucleation score
51 | VYRNAINSVIHFDGVVWGVG | inactive
52 | FFLRSPFL | 0.016 ± 0.41
53 | RSVCIVF | 0.105 ± 0.43
54 | TEFHAKGPTWCELSYSFAIL | -0.195 ± 0.58
55 | NTMGSNWYMVVNSWFVRRCS | -1.01 ± 1.2
56 | WVSSEWISTC | -0.268 ± 1.4
57 | VIDEFLSMCRVNMMGGVCRV | 2.28 ± 0.35
58 | CGMMVSEGSVSCRSLPIYLA | 0.275 ± 0.34
59 | RSHGNGSGSRTVAF | -0.1 ± 0.49
60 | YIDRRLRLRVG | inactive
61 | VFWVNFLFYYGSLLHSKGV | -1.05 ± 1
62 | YFGDAGAFGFFSGLG | 0.192 ± 0.61
63 | FNAIWVVLRVRNREYKTSVL | 1.03 ± 0.7
64 | LSPHLPSESLGLGPMS | -0.921 ± 1.4
65 | NLILIR | 0.72 ± 0.61
66 | HFMAI | -1.55 ± 0.8
67 | YGNIGV | 0.231 ± 0.81
68 | CIDDFSNFVRNVGAFGEYSF | -0.752 ± 0.53
69 | DGSVGFLMLEVCLWHSFLAC | inactive
70 | SEGWHGPGARVCLVFKNSRV | 0.286 ± 0.61
71 | TWWCV | -0.285 ± 0.27
72 | TLTPTILILFNFIT | 4.68 ± 0.052
73 | MSSFRGDLEFAYDYS | -0.582 ± 1.2
74 | DDLTVMVGPYMGGS | -0.82 ± 1.1
75 | KGMLLCYFPNKCPAWEAKCG | 5.17 ± 0.059

Row | Substance | amyloid nucleation score
76 | LYPNRAGGRLAGLGGMPYE | 0.085 ± 0.44
77 | WFFAAVWVLEFYEFR | -0.432 ± 0.3
78 | FCCMGDMYFCSDFQSVSLFL | 8.454 ± 0.065
79 | RYFSRAVACDHNES | -0.547 ± 0.84
80 | FIMIDRPETLQPNLDGLKL | -0.524 ± 0.45
81 | MRIIQCRRLFKVCCCFSVCL | 2.28 ± 0.14
82 | LLCWRYFSCSYFLECVGSTS | -1.14 ± 0.86
83 | WFVGGTWQGAMNKGPTFVN | 0.078 ± 0.56
84 | HDSLMRSGSFNTSVTVEY | 0.843 ± 0.55
85 | SQVGALFDVPQSVNDSFKNM | 0.399 ± 0.57
86 | NCMAISGITVLNMSWNNLKI | 6.612 ± 0.064
87 | RYILLVYVTCDRKVRAMKGV | 0.883 ± 0.33
88 | LLMGFGGAFSVNTADPRLLV | -0.752 ± 0.65
89 | VLLACGIFKDPTSCFCMLSL | -0.432 ± 0.48
90 | VEGRVSEFGRLHMSCYTGLR | -0.076 ± 0.48
91 | AFFYVVCFDVCKMSTMYLFG | -2.44 ± 2.4
92 | LGNNPTKHC | -0.171 ± 0.51
93 | SQAMTPNGVTSLLFTN | -0.236 ± 0.59
94 | PRNQNMT | 0.992 ± 1
95 | YNYICTDSWILSTMVDFVHL | -0.442 ± 0.92
96 | TCLKFDSPMNCKGLSSLDMM | -0.496 ± 0.38
97 | GRLSYIIRSYSLIRV | -1.21 ± 0.5
98 | QYVPNTLDNSPDAVGMSNIY | -0.29 ± 1.7
99 | RCWGRAYMYRPCCISV | -1.06 ± 0.8
100 | FFILRNQRPIC | 1.76 ± 0.2

Row | Substance | amyloid nucleation score
101 | HSSNFGRDSNSWLRAVD | -0.3 ± 0.61
102 | MVWVKGEDCFVDQACLRGAV | 1.03 ± 0.72
103 | DRVCILEQLDRSRGATVCAR | 1.24 ± 0.76
104 | YFYDVMNLRCLVFNKSWFVL | 0.119 ± 0.51
105 | LVIPVDRDANGLCYR | 0.46 ± 0.6
106 | QYLFIYFLALS | -1.27 ± 0.53
107 | FVFFSLGHLAFFARDRYSPW | 2.38 ± 0.094
108 | DWFSGLNRPRCIKLAQGGTG | 0.441 ± 0.38
109 | FKVSVALSWDDVSQFGYGYG | 0.117 ± 0.65
110 | WSYMVL | -0.645 ± 0.81
111 | CQYVFVCRHFFLGKNHEALE | -0.462 ± 0.86
112 | IYARNIRRLTRFPDLLDLVM | 1.47 ± 0.17
113 | PRLARMLLHDGAEYDCELSC | -0.963 ± 1.2
114 | YHSSKGCIVCCR | -0.391 ± 0.24
115 | AQKCPALYRLMNMPEKEKVG | 0.18 ± 0.43
116 | WYLGNAPRGATRA | -0.229 ± 1
117 | IMYWITGTIMCY | 0.037 ± 0.16
118 | SRWTQS | 0.201 ± 0.88
119 | SGCLLSDGEF | 0.046 ± 0.32
120 | SALNSSRGKFICSRRCHGEE | 0.078 ± 0.23
121 | LAWVGVLW | -0.219 ± 1.1
122 | TSELNSYSTCFHSDGLSMNR | inactive
123 | IYVITVRPNVHNTLMHLIVT | 0.374 ± 0.73
124 | IFTAVSSVAFLSLINVLSLL | 2.75 ± 0.21
125 | AFIKNLTLCLDWTHSGAVYM | 7.24 ± 0.08

Row | Substance | amyloid nucleation score
126 | VVCQVNIHLNGVCLHRCLEE | 6.862 ± 0.059
127 | GNDGENLMSWTIVWNFIVG | 4.33 ± 0.062
128 | LEMGDPCQYCLDLFAGYPSG | 0.549 ± 0.55
129 | WCGLARREKCRMPNGHRVHI | -0.497 ± 0.48
130 | HFFVVNQSYPNHFHLLGI | 5.05 ± 0.094
131 | VFVICCKRREAG | -0.295 ± 0.34
132 | YFTRFGHSELRSFMLVGTDM | -0.007 ± 0.28
133 | YFRCKFDRASIQHLIASRAH | 3.18 ± 0.19
134 | AVGYYCKSINRKHFIVEKLQ | -0.298 ± 0.4
135 | KLRIRSWKVFTPNSLLVVAI | -0.893 ± 1.1
136 | DDRVSQLAWGLCAVSYARLE | 0.681 ± 0.54
137 | VLYGGDLALLSFDTGHPLFL | 0.297 ± 0.38
138 | FVVSDTGKVKWGMAQ | 2.68 ± 0.14
139 | LGRSGKMTT | -0.032 ± 0.54
140 | LVPVIKEQFCCHVWVMV | inactive
141 | KLDGVVPDVYLSGRLPQAWL | 0.205 ± 0.86
142 | KSKRWELLPFEVRAARAVGQ | -0.024 ± 0.3
143 | RNSIVGCGYDVGTHVSDLGP | -0.035 ± 0.41
144 | TFYLEYLVLFGDCDADSFSW | -0.361 ± 0.63
145 | MLIRWNSYTGHIGWIFSGKA | 0.94 ± 0.19
146 | ANKLCSVKQQTPRLRWYMGS | 0.856 ± 0.48
147 | TLQLICYY | 3.29 ± 0.14
148 | AFFPGNFWACGSFDFLWYWL | 3.38 ± 0.083
149 | YYTCSSETM | 0.811 ± 0.39
150 | SNLQWYRTKGGVGLVTVMWR | 0.981 ± 0.16

Row | Substance | amyloid nucleation score
151 | CLLLVMTVTGGGSVTMLSQM | -0.078 ± 0.32
152 | GRMEGTGNYMVYKDQEGVNG | inactive
153 | WLGRYQLLWLALGWIITRRG | 1.51 ± 0.47
154 | LYLIGTILNLIGY | 5.746 ± 0.045
155 | LLFCRFRSWDRDHRWCRCD | 1.95 ± 0.66
156 | SGCVQDCSLKRIFLMPDKAL | -1.03 ± 0.55
157 | LRGFESTRETVLGSMQQWCL | 1.03 ± 0.56
158 | TLLYICSRNTKFNGLMWLGL | 0.935 ± 0.21
159 | FLMGTFDCCTVSVLFFAGK | 5.44 ± 0.055
160 | HHSRIFICDLRWSSTVRHCK | 1.39 ± 0.16
161 | QNFSRTGGIGIHKIFVGMGE | -1.13 ± 1.4
162 | QDITPYWIVIGYD | -0.367 ± 0.29
163 | GFHEIMLYYSYIKVLVIDSH | 0.387 ± 0.75
164 | YRVVYRKNVDCTMYQFMSRR | 0.539 ± 0.31
165 | LHRALYLDRQLISWGTVSQM | -0.332 ± 0.42
166 | AHFVRVDHNGGGLCMLGISR | -1.21 ± 0.86
167 | IHCDIALNRSTWLYFPFVLA | inactive
168 | GFSRYSPRSKFFNSLVLKSS | -0.171 ± 1.1
169 | YSYFSPDFRRSQHQGGVCPA | 0.329 ± 0.53
170 | IRFHCLHLVAVLTKTRVFEA | 0.064 ± 0.95
171 | SKVSVCNPSSLGSRVGGLAN | inactive
172 | VVYHT | -0.368 ± 0.28
